Source: US10654893B2, “Self-assembling peptide compositions” (3-D MATRIX, LTD., priority 2014, dated 2020)

Experiments:
Format in all cases: physicochemical
[1] = Visual observation of peptide compositions with selected salts (cloud point, critical ionic strength); conditions: for Observation: room temperature; for Conc. at cloud point / Ionic strength at cloud point: visual observation of solubility
Protocol: Visual observations of RADA16 (SEQ ID NO:1), KLD12 (SEQ ID NO:2), and IEIK13 (SEQ ID NO:3) compositions with selected salts (e.g. KCl, MgCl2, CaCl2) are summarized in Tables 7-9. […] Apparent stiffness of RADA16 (SEQ ID NO:1), KLD12 (SEQ ID NO:2) and IEIK13 (SEQ ID NO:3) compositions was increased with increased ionic strength.
Critical ion strengths were determined from the visual observations recorded in Tables 7-9. When the ionic strengths of peptide compositions were higher than 0.9 M (RADA16 (SEQ ID NO:1)), 0.3 M (KLD12 (SEQ ID NO:2)) or 0.03 M (IEIK13 (SEQ ID NO:3)), the peptide compositions began phase separation. 0.9 M, 0.3 M and 0.03 M may represent critical ion strengths for RADA16 (SEQ ID NO:1), KLD12 (SEQ ID NO:2) and IEIK13 (SEQ ID NO:3), respectively.

[2] = pH of reference peptide compositions in water; conditions: reference composition in water
From the text: Table 2, below, presents pH concentrations observed for reference compositions in which the indicated peptide is solubilized in water at the indicated concentration.

[3] = Rheometer stress sweep test of peptide compositions at selected concentrations (AR500, 40 mm plates); conditions: 37° C.; for Loss Modulus (G″) / Storage Modulus (G′): at 1 Pa of oscillation stress, 10 rad/s; for Max. Viscosity (max η′): maximum in range of measured stress; for Yield Stress: stress sweep 10 rad/s
Protocol: The present Example further describes measurement of various rheological properties of certain peptide compositions at selected concentrations using a rheometer (AR500, TA Instruments) with 40 mm plates. A peptide composition (700 μL) was placed on the rheometer plate and excess composition was gently removed by Kimwipes. Measurements were performed after 2 minutes of relaxation time at 37° C. Storage modulus, loss modulus, and viscosity (η′) were measured at 37° C. with the plates placed at a measuring geometry gap of 300 μm, and stress sweep tests were performed at 0.1 Pa˜1000 Pa of oscillation stress with angular frequency at 10 rad/s.
Results are shown in FIGS. 2-4 for RADA16 (SEQ ID NO:1), IEIK13 (SEQ ID NO:3), and KLD12 (SEQ ID NO:2).

[4] = Congo Red assay of gel formation in PBS solution (pH 7.4); conditions: 0.5%, 1.0%, 1.5%, 2.0% and 2.5%
Protocol: A Congo Red assay was performed to determine gel formation of peptide compositions in a PBS (Phosphate buffered saline) solution (pH 7.4), as shown in FIG. 1. 100 μl of each gel at selected concentrations were plated on a glass slide. After 30 seconds, 500 μl of 1% Congo Red solution was added around and on top of each of the composition aliquots and then the excess Congo Red solution was wiped off prior to examination. RADA16 (SEQ ID NO:1), IEIK13 (SEQ ID NO:3), and KLD12 (SEQ ID NO:2) were plated at selected concentrations of 0.5%, 1.0%, 1.5%, 2.0% and 2.5%. Visual observation determined the success or failure of gelation at each concentration.

## Arg-Ala-Asp-Ala-Arg-Ala-Asp-Ala-Arg-Ala-Asp-Ala-Arg-Ala-Asp-Ala [RADA16]
[1]; RADA16 0.5%, DPBS (pH 3.2) 1.0 M, ionic strength 1.0 M
  Observation: Cloudy, phase-separated
[1]; RADA16 0.55%, DPBS (pH 3.2) 0.95 M, ionic strength 0.95 M
  Observation: Slightly cloudy, brittle gel
[1]; RADA16 0.6%, DPBS (pH 3.2) 0.9 M, ionic strength 0.9 M
  Observation: Clear, thick, stiffer gel
[1]; RADA16 0.75%, DPBS (pH 3.2) 0.75 M, ionic strength 0.75 M
  Observation: Clear, thick, stiffer gel
[1]; RADA16 0.9%, DPBS (pH 3.2) 0.6 M, ionic strength 0.6 M
  Observation: Clear, thick, stiffer gel
[1]; RADA16 0.93%, KCl 1.15 M, ionic strength 1.15 M
  Observation: Cloudy, phase-separated
[1]; RADA16 0.95%, KCl 1.1 M, ionic strength 1.1 M
  Observation: Slightly cloudy, brittle gel
[1]; RADA16 0.98%, KCl 1.05 M, ionic strength 1.05 M
  Observation: Slightly cloudy, thick,
[1]; RADA16 1.0%, KCl 1.0 M, ionic strength 1.0 M
  Observation: Clear, thick, stiffer gel
[1]; RADA16 1.0%, NaCl 1.0 M, ionic strength 1.0 M
  Observation: Cloudy, phase-separated
[1]; RADA16 1.03%, KCl 0.95 M, ionic strength 0.95 M
  Observation: Clear, thick, stiffer gel
[1]; RADA16 1.03%, NaCl 0.95 M, ionic strength 0.95 M
  Observation: Cloudy, phase-separated
[1]; RADA16 1.05%, DPBS (pH 3.2) 0.45 M, ionic strength 0.45 M
  Observation: Clear, thick, stiffer gel
[1]; RADA16 1.05%, KCl 0.9 M, ionic strength 0.9 M
  Observation: Clear, thick, stiffer gel
[1]; RADA16 1.05%, NaCl 0.9 M, ionic strength 0.9 M
  Observation: Slightly cloudy, brittle gel
[1]; RADA16 1.08%, NaCl 0.85 M, ionic strength 0.85 M
  Observation: Clear, thick, stiffer gel
[1]; RADA16 1.10%, NaCl 0.8 M, ionic strength 0.8 M
  Observation: Clear, thick, stiffer gel
[1]; RADA16 1.13%, KCl 0.75 M, ionic strength 0.75 M
  Observation: Clear, thick, stiffer gel
[1]; RADA16 1.13%, NaCl 0.75 M, ionic strength 0.75 M
  Observation: Clear, thick, stiffer gel
[1]; RADA16 1.2%, DPBS (pH 3.2) 0.3 M, ionic strength 0.3 M
  Observation: Clear, thick, stiffer gel
[1]; RADA16 1.2%, KCl 0.6 M, ionic strength 0.6 M
  Observation: Clear, thick, stiffer gel
[1]; RADA16 1.2%, NaCl 0.6 M, ionic strength 0.6 M
  Observation: Clear, thick, stiffer gel
[1]; RADA16 1.27%, KCl 0.45 M, ionic strength 0.45 M
  Observation: Clear, thick, stiffer gel
[1]; RADA16 1.27%, NaCl 0.45 M, ionic strength 0.45 M
  Observation: Clear, thick, stiffer gel
[1]; RADA16 1.28%, CaCl2 0.433 M, ionic strength 1.3 M
  Observation: Cloudy, phase-separated
[1]; RADA16 1.28%, MgCl2 0.433 M, ionic strength 1.3 M
  Observation: Cloudy, phase-separated
[1]; RADA16 1.29%, CaCl2 0.417 M, ionic strength 1.25 M
  Observation: Slightly cloudy, brittle gel
[1]; RADA16 1.29%, MgCl2 0.417 M, ionic strength 1.25 M
  Observation: Slightly cloudy, brittle gel
[1]; RADA16 1.3%, CaCl2 0.4 M, ionic strength 1.2 M
  Observation: Slightly cloudy, thick,
[1]; RADA16 1.3%, MgCl2 0.4 M, ionic strength 1.2 M
  Observation: Slightly cloudy, thick,
[1]; RADA16 1.31%, CaCl2 0.383 M, ionic strength 1.15 M
  Observation: Clear, thick, stiffer gel
[1]; RADA16 1.31%, MgCl2 0.383 M, ionic strength 1.15 M
  Observation: Clear, thick, stiffer gel
[1]; RADA16 1.32%, CaCl2 0.35 M, ionic strength 1.05 M
  Observation: Clear, thick, stiffer gel
[1]; RADA16 1.32%, MgCl2 0.35 M, ionic strength 1.05 M
  Observation: Clear, thick, stiffer gel
[1]; RADA16 1.35%, CaCl2 0.3 M, ionic strength 0.9 M
  Observation: Clear, thick, stiffer gel
[1]; RADA16 1.35%, DPBS (pH 3.2) 0.15 M, ionic strength 0.15 M
  Observation: Clear, thick, stiffer gel
[1]; RADA16 1.35%, KCl 0.3 M, ionic strength 0.3 M
  Observation: Clear, thick, stiffer gel
[1]; RADA16 1.35%, MgCl2 0.3 M, ionic strength 0.9 M
  Observation: Clear, thick, stiffer gel
[1]; RADA16 1.35%, NaCl 0.3 M, ionic strength 0.3 M
  Observation: Clear, thick, stiffer gel
[1]; RADA16 1.38%, CaCl2 0.25 M, ionic strength 0.75 M
  Observation: Clear, thick, stiffer gel
[1]; RADA16 1.38%, MgCl2 0.25 M, ionic strength 0.75 M
  Observation: Clear, thick, stiffer gel
[1]; RADA16 1.4%, CaCl2 0.2 M, ionic strength 0.6 M
  Observation: Clear, thick, stiffer gel
[1]; RADA16 1.4%, MgCl2 0.2 M, ionic strength 0.6 M
  Observation: Clear, thick, stiffer gel
[1]; RADA16 1.43%, CaCl2 0.15 M, ionic strength 0.45 M
  Observation: Clear, thick, stiffer gel
[1]; RADA16 1.43%, KCl 0.15 M, ionic strength 0.15 M
  Observation: Clear, thick, stiffer gel
[1]; RADA16 1.43%, MgCl2 0.15 M, ionic strength 0.45 M
  Observation: Clear, thick, stiffer gel
[1]; RADA16 1.43%, NaCl 0.15 M, ionic strength 0.15 M
  Observation: Clear, thick, stiffer gel
[1]; RADA16 1.45%, CaCl2 0.1 M, ionic strength 0.3 M
  Observation: Clear, thick, stiffer gel
[1]; RADA16 1.45%, MgCl2 0.1 M, ionic strength 0.3 M
  Observation: Clear, thick, stiffer gel
[1]; RADA16 1.48%, CaCl2 0.05 M, ionic strength 0.15 M
  Observation: Clear, thick, stiffer gel
[1]; RADA16 1.48%, MgCl2 0.05 M, ionic strength 0.15 M
  Observation: Clear, thick, stiffer gel
[1]; RADA16 1.5%, CaCl2 0 M, ionic strength 0 M
  Observation: Clear, thick gel
[1]; RADA16 1.5%, DPBS (pH 3.2) 0 M, ionic strength 0 M
  Observation: Clear, thick gel
[1]; RADA16 1.5%, KCl 0 M, ionic strength 0 M
  Observation: Clear, thick gel
[1]; RADA16 1.5%, MgCl2 0 M, ionic strength 0 M
  Observation: Clear, thick gel
[1]; RADA16 1.5%, NaCl 0 M, ionic strength 0 M
  Observation: Clear, thick gel
[1]; approximately, depending on salt identities
  Ionic strength range that did not noticeably change the opacity of compositions: 0.85˜1.15 M
[1]; from visual observations of Tables 7-9
  Critical ion strength (above it compositions began phase separation): 0.9 M
[1]; range over salts
  Critical ionic strength (when the composition becomes cloudy): 0.9˜1.2 M
[1]; salt CaCl2
  Conc. at cloud point: 0.383~0.4 M
  Ionic strength at cloud point: 1.15~1.2 M
[1]; salt DPBS (pH 3.2)
  Conc. at cloud point: 0.9~0.95 M
  Ionic strength at cloud point: 0.9~0.95 M
[1]; salt KCl
  Conc. at cloud point: 1.0~1.05 M
  Ionic strength at cloud point: 1.0~1.05 M
[1]; salt MgCl2
  Conc. at cloud point: 0.383~0.4 M
  Ionic strength at cloud point: 1.15~1.2 M
[1]; salt NaCl
  Conc. at cloud point: 0.85~0.9 M
  Ionic strength at cloud point: 0.85~0.9 M
[2]; Concentration 0.5%
  pH: 2.7
[2]; Concentration 1.0%
  pH: 2.5
[2]; Concentration 1.5%
  pH: 2.5
[2]; Concentration 2.0%
  pH: 2.5
[2]; Concentration 2.5%
  pH: 2.5
[3]; Conc. 1%
  Loss Modulus (G″): 12 Pa
  Storage Modulus (G′): 74 Pa
  Max. Viscosity (max η′): 2.3 Pa · s
  Yield Stress: 15.9 Pa
[3]; Conc. 1.5%
  Loss Modulus (G″): 30 Pa
  Storage Modulus (G′): 158 Pa
  Max. Viscosity (max η′): 3.4 Pa · s
  Yield Stress: 20.0 Pa
[3]; Conc. 2%
  Loss Modulus (G″): 39 Pa
  Storage Modulus (G′): 217 Pa
  Max. Viscosity (max η′): 4.0 Pa · s
  Yield Stress: 31.6 Pa
[3]; Conc. 2.5%
  Loss Modulus (G″): 53 Pa
  Storage Modulus (G′): 352 Pa
  Max. Viscosity (max η′): 5.6 Pa · s
  Yield Stress: 50.1 Pa
[4]
  Gel formation (success or failure of gelation): gelled at all concentrations
